The values that follow come from paper PMC4498904, “Mutagenesis Study Reveals the Rim of Catalytic Entry Site of HDAC4 and -5 as the Major Binding Surface of SMRT Corepressor” (PLoS ONE, 2015).

To fix the notation:
B1: KGC-HDAC4c (C-terminal portion of Kusabira Green protein fused with HDAC4c), wild type [human] / KGN-SRD3c (N-terminal portion of Kusabira Green protein fused with SRD3c) [human] (parent)
chain 1: PRFTTGLVYDTLMLKHQCTCGSSSSHPEHAGRIQSIWSRLQETGLRGKCECIRGRKATLEELQTVHSEAHTLLYGTNPLNRQKLDSKKLLGSLASVFVRLPCGGVGVDSDTIWNEVHSAGAARLAVGCVVELVFKVATGELKNGFAVVRPPGHHAEESTPMGFCYFNSVAVAAKLLQQRLSVSKILIVDWDVHHGNGTQQAFYSDPSVLYMSLHRYDDGNFFPGSGAPDEVGTGPGVGFNVNMAFTGGLDPPMGDAEYLAAFRTVVMPIASEFAPDVVLVSSGFDAVEGHPTPLGGYNLSARCFGYLTKQLMGLAGGRIVLALEGGHDLTAICDASEACVSALLGNELDPLPEKVLQQRPNANAVRSMEKVMEIHSKYWRCLQRTTSTAGRSLIEAQTCENEEAET
chain 2: EGGMSVTQCSKEDGRSSSGPPHETAAPKRTYDMMEGRVGRAISSASIEGLMGRAIPPERHSPHHLKEQHHIRGSITQGIPRSYVEAQEDYLRREAKLLKREGTPPPPPPSRDLTEAYKTQALGPLKLKPAHEGLVATVKEAGRSIHEIPREELRHTPELPLAPRPLKEGSITQGTPLKYDTGASTTGSKKHDVRSLIGSPGRTFPPVHPLDVMADARALERACY
B2: KGC-HDAC5c (C-terminal portion of Kusabira Green protein fused with HDAC5c), wild type [human] / KGN-SRD3c (N-terminal portion of Kusabira Green protein fused with SRD3c) [human] (parent)
chain 1: LFTTGVVYDTFMLKHQCMCGNTHVHPEHAGRIQSIWSRLQETGLLSKCERIRGRKATLDEIQTVHSEYHTLLYGTSPLNRQKLDSKKLLGPISQKMYAVLPCGGIGVDSDTVWNEMHSSSAVRMAVGCLLELAFKVAAGELKNGFAIIRPPGHHAEESTAMGFCFFNSVAITAKLLQQKLNVGKVLIVDWDIHHGNGTQQAFYNDPSVLYISLHRYDNGNFFPGSGAPEEVGGGPGVGYNVNVAWTGGVDPPIGDVEYLTAFRTVVMPIAHEFSPDVVLVSAGFDAVEGHLSPLGGYSVTARCFGHLTRQLMTLAGGRVVLALEGGHDLTAICDASEACVSALLSVELQPLDEAVLQQKPNINAVATLEKVIEIQSKHWSCVQKFAAGLGRSLREAQAGETEEAETVS
chain 2: B1 chain 2

The variants in one experiment derive from B1. The experiment in a line: BiFC assay (fluorescence spectrophotometer). The conditions noted are these: HEK293 cells, KGN-SRD3c (1 μg) and KGC-HDAC4c mutant (1 μg), 48 hours of transfection, whole cell lysates, parent: 8, read off a plot.
For the variant chain 1 PRFTTGLVYDTLMLKHQCTYGSSSSHPEHAGRIQSIWSRLQETGLRGKCECIRGRKATLEELQTVHSEAHTLLYGTNPLNRQKLDSKKLLGSLASVFVRLPCGGVGVDSDTIWNEVHSAGAARLAVGCVVELVFKVATGELKNGFAVVRPPGHHAEESTPMGFCYFNSVAVAAKLLQQRLSVSKILIVDWDVHHGNGTQQAFYSDPSVLYMSLHRYDDGNFFPGSGAPDEVGTGPGVGFNVNMAFTGGLDPPMGDAEYLAAFRTVVMPIASEFAPDVVLVSSGFDAVEGHPTPLGGYNLSARCFGYLTKQLMGLAGGRIVLALEGGHDLTAICDASEACVSALLGNELDPLPEKVLQQRPNANAVRSMEKVMEIHSKYWRCLQRTTSTAGRSLIEAQTCENEEAET [chain 1 C20Y], the response stood at 4.1 RFU.
On to chain 1 PRFTTGLVYDTLMLKHQCTCGSSSSHPEHAGRIQSIWSRLQETGLRGKCECIRGRKATLEELQTVHSEAHTLLYGTNPLNRQKLDSKKLLGSLASVFVRLPYGGVGVDSDTIWNEVHSAGAARLAVGCVVELVFKVATGELKNGFAVVRPPGHHAEESTPMGFCYFNSVAVAAKLLQQRLSVSKILIVDWDVHHGNGTQQAFYSDPSVLYMSLHRYDDGNFFPGSGAPDEVGTGPGVGFNVNMAFTGGLDPPMGDAEYLAAFRTVVMPIASEFAPDVVLVSSGFDAVEGHPTPLGGYNLSARCFGYLTKQLMGLAGGRIVLALEGGHDLTAICDASEACVSALLGNELDPLPEKVLQQRPNANAVRSMEKVMEIHSKYWRCLQRTTSTAGRSLIEAQTCENEEAET [chain 1 C102Y], for which the response worked out at 4.5 RFU.
The same measure, in the same setting: the value for chain 1 PRFTTGLVYDTLMLKHQCTCGSSSSHPEHAGRIQSIWSRLQETGLRGKCECIRGRKATLEELQTVHSEAHTLLYGTNPLNRQKLDSKKLLGSLASVFVRLPCGGVGVDSDTIWNEVHSAGAARLAVGCVVELVFKVATGELKNGFAVVRPPGHHAEESTPMGFCYFNSVAVAAKLLQQRLSVSKILIVDWDVLHGNGTQQAFYSDPSVLYMSLHRYDDGNFFPGSGAPDEVGTGPGVGFNVNMAFTGGLDPPMGDAEYLAAFRTVVMPIASEFAPDVVLVSSGFDAVEGHPTPLGGYNLSARCFGYLTKQLMGLAGGRIVLALEGGHDLTAICDASEACVSALLGNELDPLPEKVLQQRPNANAVRSMEKVMEIHSKYWRCLQRTTSTAGRSLIEAQTCENEEAET [chain 1 H193L] was 4.3 RFU; that for chain 1 PRFTTGLVYDTLMLKHQYTCGSSSSHPEHAGRIQSIWSRLQETGLRGKCECIRGRKATLEELQTVHSEAHTLLYGTNPLNRQKLDSKKLLGSLASVFVRLPCGGVGVDSDTIWNEVHSAGAARLAVGCVVELVFKVATGELKNGFAVVRPPGHHAEESTPMGFCYFNSVAVAAKLLQQRLSVSKILIVDWDVHHGNGTQQAFYSDPSVLYMSLHRYDDGNFFPGSGAPDEVGTGPGVGFNVNMAFTGGLDPPMGDAEYLAAFRTVVMPIASEFAPDVVLVSSGFDAVEGHPTPLGGYNLSARCFGYLTKQLMGLAGGRIVLALEGGHDLTAICDASEACVSALLGNELDPLPEKVLQQRPNANAVRSMEKVMEIHSKYWRCLQRTTSTAGRSLIEAQTCENEEAET [chain 1 C18Y] was 5 RFU.

In a further experiment the parent is B2. The experiment in a line: BiFC assay (fluorescence spectrophotometer). To be noted: HEK293 cells, KGN-SRD3c (1 μg) and KGC-HDAC5c mutant (1 μg), 48 hours of transfection, whole cell lysates, parent: 9.3, read off a plot.
Consider chain 1 LFTTGVVYDTFMLKHQCMCGNTHVHPEHAGRIQSIWSRLQETGLLSKCERIRGRKATLDEIQTVHSEYHTLLYGTSPLNRQKLDSKKLLGPISQKMYAVLPCGGIGVDSDTVWNEMHSSSAVRMAVGCLLELAFKVAAGELKNGFAIIRPPGHHAEESTAMGFCFFNSVAITAKLLQQKLNVGKVLIVDWDIRHGNGTQQAFYNDPSVLYISLHRYDNGNFFPGSGAPEEVGGGPGVGYNVNVAWTGGVDPPIGDVEYLTAFRTVVMPIAHEFSPDVVLVSAGFDAVEGHLSPLGGYSVTARCFGHLTRQLMTLAGGRVVLALEGGHDLTAICDASEACVSALLSVELQPLDEAVLQQKPNINAVATLEKVIEIQSKHWSCVQKFAAGLGRSLREAQAGETEEAETVS [chain 1 H193R], for which the response was found to be 4 RFU.
Still for that read-out and setting: the value for chain 1 LFTTGVVYDTFMLKHQCMCGNTHVHPEHAGRIQSIWSRLQETGLLSKCERIRGRKATLDEIQTVHSEYHTLLYGTSPLNRQKLDSKKLLGPISQKMYAVLPYGGIGVDSDTVWNEMHSSSAVRMAVGCLLELAFKVAAGELKNGFAIIRPPGHHAEESTAMGFCFFNSVAITAKLLQQKLNVGKVLIVDWDIHHGNGTQQAFYNDPSVLYISLHRYDNGNFFPGSGAPEEVGGGPGVGYNVNVAWTGGVDPPIGDVEYLTAFRTVVMPIAHEFSPDVVLVSAGFDAVEGHLSPLGGYSVTARCFGHLTRQLMTLAGGRVVLALEGGHDLTAICDASEACVSALLSVELQPLDEAVLQQKPNINAVATLEKVIEIQSKHWSCVQKFAAGLGRSLREAQAGETEEAETVS [chain 1 C102Y] was 4.7 RFU; that for chain 1 LFTTGVVYDTFMLKHQWMCGNTHVHPEHAGRIQSIWSRLQETGLLSKCERIRGRKATLDEIQTVHSEYHTLLYGTSPLNRQKLDSKKLLGPISQKMYAVLPCGGIGVDSDTVWNEMHSSSAVRMAVGCLLELAFKVAAGELKNGFAIIRPPGHHAEESTAMGFCFFNSVAITAKLLQQKLNVGKVLIVDWDIHHGNGTQQAFYNDPSVLYISLHRYDNGNFFPGSGAPEEVGGGPGVGYNVNVAWTGGVDPPIGDVEYLTAFRTVVMPIAHEFSPDVVLVSAGFDAVEGHLSPLGGYSVTARCFGHLTRQLMTLAGGRVVLALEGGHDLTAICDASEACVSALLSVELQPLDEAVLQQKPNINAVATLEKVIEIQSKHWSCVQKFAAGLGRSLREAQAGETEEAETVS [chain 1 C17W] was 4.4 RFU.
